For one molecule, Kd results are on record in paper doi:10.1101/2025.07.11.664294 (2025).

Bridges are numbered along the chain shown (N, C = ends).

For the assay, the target named is Neuropilin-1 (NRP-1) 22-644 (Homo sapiens, UniProt O14786). The assay can be described thus: SPR.
Chain of Neuropilin-1 (NRP-1) 22-644 (O14786 22-644): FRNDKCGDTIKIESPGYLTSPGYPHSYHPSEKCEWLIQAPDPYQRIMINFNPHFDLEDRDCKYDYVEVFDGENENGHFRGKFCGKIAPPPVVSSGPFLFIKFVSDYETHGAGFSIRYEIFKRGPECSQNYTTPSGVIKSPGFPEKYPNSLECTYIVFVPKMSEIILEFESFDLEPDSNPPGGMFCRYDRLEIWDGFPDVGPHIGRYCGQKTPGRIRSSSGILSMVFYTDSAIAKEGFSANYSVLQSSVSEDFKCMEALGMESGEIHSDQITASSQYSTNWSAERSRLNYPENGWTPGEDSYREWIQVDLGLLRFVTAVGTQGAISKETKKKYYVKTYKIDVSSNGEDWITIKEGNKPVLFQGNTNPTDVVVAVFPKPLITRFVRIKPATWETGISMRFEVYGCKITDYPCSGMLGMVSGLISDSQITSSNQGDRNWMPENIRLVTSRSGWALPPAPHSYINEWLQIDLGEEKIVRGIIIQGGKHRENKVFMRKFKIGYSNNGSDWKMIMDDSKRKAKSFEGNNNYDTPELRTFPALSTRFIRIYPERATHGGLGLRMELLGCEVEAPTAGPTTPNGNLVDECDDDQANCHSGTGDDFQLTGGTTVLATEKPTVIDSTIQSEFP

B1: P78 (Ctx fragment) 27-34 (peptide)
chain: Ac-KCYGPQCL-NH2
modifications: disulfide 2-7
SMILES: CC(=O)N[C@@H](CCCCN)C(=O)N[C@H]1CSSC[C@@H](C(=O)N[C@@H](CC(C)C)C(N)=O)NC(=O)[C@H](CCC(N)=O)NC(=O)[C@@H]2CCCN2C(=O)CNC(=O)[C@H](Cc2ccc(O)cc2)NC1=O
As for B1, the Kd is 267 µM.
